Experimental data from the DeepSol protein solubility set.

assay: soluble on expression in E. coli; label from the status in PepcDB or PDB records

Sequence | soluble on expression in E. coli
MLEVREVEKSFKKKKVLKGGSLSVNKGEIVGLLGPNGAGKTTLFNSIIGFISVDKGKVLLDGEDVTHLPPFKRAQKGLAFLPQEHTLFEDLTVLENLLIFLEFFTDSKEEAITKAEALLEDFGLLELKDQKAYALSGGQKRRLEIARSLITTPKYVLLDEPFAGLDPIIVSEIREIVKNLKNNGIGVLITDHNVRETIKMVDRVYIISEGKVLAHGKPEEVVNNEAVRKTYLGVDFKL | soluble
MGSDKIHHHHHHLITVTDLSLQIGSRTLYSDVNLKFTPGNCYGIIGANGAGKSTFLKLLEGKMEPTTGSISMGPNERMSSLNQDHFAFEDFSVMETVIQGHQKLYQVMKERDALYAKADFSEEDGVKAAELETEFAELDGWNAEADAAQLLQSMSIPEDMHQKQMSELAESDKVKVLLAQALFGNPDTLLLDEPTNGLDVHTTAWLENFLADYENIVLVVSHDRHFLNQVCTQMCDVDRGQIKLYVGNYDFWYESSKLATELARQQNAKKEEQIKQLQEFIARFSANASKSKQATSRKKQLDKISLDDIKPSSRKYPYIKFEMNRDLGNDLLRVDNVSYKSGDEQLLDNVSFIIRPGDKVAFLSRNTRATTALMEIIAGRLEPDSGTVTWGQTTSFNYMSRDLNANFDNDELTILDWLRQYADKEHDDNTFLRGFLGRMLFSGDEINKQIKVLSGGEKVRCQLSRMMLEAANVLVMDDPTNHLDLESITALNEAMENYPGSILFTSHDHEFIQTIANHIIEVGPKGVVARADISYDDFLAHPTVQEQVAKIY | not soluble
MGSDKIHHHHHHMKNNETKVPTSRLSRLSKMGGLASRLAGNVLLEGAKQLSQGKSPSMQQLMMTPKNIGHVADKLSQLRGAAMKVGQMLSMDAGDLVPPELAEILAKLRSDAKAMPHKQLTQLLVQHWGHDWLAPFAQFELRPFAAASIGQVHLAYLDTGEKLAIKIQYPGIRDSIDSDIDNVASLLKVSRLIPANVKLDTLLAEAKAQLHNEADYHFEAQQIALYQQQLGDSPHFIVPKVYPKLSNNSILCMQFVEGVAIESVEHSPQDVRDKVASALMELCFKELFCFQLVQSDPNFANFQYQADSQKIVLLDFGATRTISDTLSQGYMQLMQGAIADDKQQMIQAAQQIGFFQDAIDPQQKQLIIDIFYQACEPLRTQGTYDFGASNLAKRITQAGKAMSTQQNEWHTPPTDAIFIHRKLAGMYLLAAKLNANINVHALFNQVVNSKNE | not soluble
MSGDGDSSTTSSAGDGSTSKDKIPAFSEIRVIEVNRDNFAKIWPYLLVCIKSADFTAIDLELSGLGGKGLRSRDIAERYQAIRDAAHTRSILSVGIATMKLTHKSEKRRALRYETQVFNILTFSEKPFTIEPSALQFLAKHSFDFNRLIQSGVRFQGANCPLKTLFRELLGSSATFCLHNGFIDLAFIYKQLYDIDLPDTLDGFVNNLSDMFPDNYLPVADSKYLAEYQTRMTASFLEYVFRRTQGDNEIERQNNRYHIEICFPSSEKSIKALKNATESVDVRLPEGFPDHAIPIDLHIHVCKYFAYHGFCHARNTEKGCKLLHDVDTAIDLQRIKENKKAFKRKRRYNNVIAESVAEKTGTDEEAWKNAKFEQNLLTRDFRELKRNVVTGLHRAGVDAFMTAFAVIYQQRRTLMADNSVDLKFLNRVPLSAKDKPLHLRHRPVPVPQSEQIDAHLEAMVEINKQRDYIRMNAAATVIKSVQKEDTPCED | not soluble
MEKVQSISNGTNSISYTLTRSRRKTVGIRITENGEVKVAAPLNIPDRQLKDIILKKLPWILRKQEELRKICEESRLENKFADGETFLYLGKEYTLRIAKGVLPEGVNLEENYIVVAADETKVSVNGPQYIRNVLKNFYVNQFVDIAKTRMDFFSPKIGVCPRKLTVREQKTRWGSCSSKGNISLNWKLVMAPMEVIDYVIVHELCHMKEMNHSKNYWNIVKSIIPDFELRRKWLKDNGHRLLM | soluble
MEPQLRCIGCGAAIQFENPKNAGYAPKSVLEKDAEEVICQRCFRLKHYNEVQDVPLDDDDFLSMLHRIGESKALVVNIVDIFDFNGSFIPGLPRFAADNPILLVGNKADLLPRSVKYPKLLRWMRRMAEELGLCPVDVCLVSAAKGIGMAKVMEAINRYREGGDVYVVGCTNVGKSTFINRIIEEATGKGNVITTSYFPGTTLDMIEIPLESGATLYDTPGIINHHQMAHFVDARDLKIITPKREIHPRVYQLNEGQTLFFGGLARLDYIKGGRRSFVCYMANELTVHRTKLEKADSLYANQLGELLSPPSKRYAAEFPPLVPRSLSVKERKTDIVFSGLGWVTCNDPGAQLVVHAPKGVDVFIRQSLI | soluble
YGKQRKASVIGAINTVSMNELKMPVAKLSSGLAGQLAGIVVMQRSGEPGAGADFWIRGINTFGAGNKPLVLVDGVERSMDLVDVEDIASFSILKDATATALYGVRGANGIVLITTKRGTES | not soluble
MEVRGMDTIGHHYIVEAAGCDPNVIGDANKIREIFLEAAKRGNMEVKASYFFKFSPMGVSGVVIVAESHISVHTWPEKGYAALDVYTCGENADPEKAVDYILEQFKAQYAHVSEIKRGIEEEDRTFTHTILTWEERLDRRNGKP | soluble
MTTTGIIAEFNPFHNGHKYLLDQAHGLKIVAMSGNFVQRGEPAIIDKWTRAQMALENGADLVVELPFLVAVQSADYFASGAVDILAKLGIDTLAFGTETALDYNGLSTIYGKMAEQMSEFLTTLPEKLSYPQKTQLMWEKFAGVQFTGDTPNHILALAYAKACAGRNIRLRPIQRRGADYHSTEKTVAYASATSLRHHRQDPAFVAKSMPNANLFQTSPQVTWEDYFTLLQYQVLTQPDLTQLFQVNEELAIRIKKAIRQVTSFDQLVETVATKRYTKARVRRILIYILIGARETSLPQDVHILGFTAAGRTHLSHIKNKTRIISRIGSQPWDALTQQADQVYQLGNPKIAEQTWGRVPI | not soluble
MKTTTATNSILFKLYFAPGATEQISIEYYNLQQLIEKLELKLGELGLNFNVVFWKNDKGNLISMSQNAQRVLKKMANRDSASIFVIADSDSSDSSSDSSDSGDEDVIIADAPEVAPHRRHCGRRDRSRSRGFDRSRSRSRSRSNFHDHHKRHQMKKLMWKRFQESHGHPEFKRRHCFGGRRARSASPIGRRPCREGEEFKRHPLGSFGTPCGREEFEGPTGGFGRPFGRRGMDHHGFNFHRHHHPFGAFHGFGGHHHGFGHGFGHHGFKRQHPFERRFGRC | not soluble
ANTAFVSSACNTQKIPSGSPFNRNLRAMLADLRQNTAFSGYDYKTSRAGSGGAPTAYGRATCKQSISQSDCTACLSNLVNRIFSICNNAIGARVQLVDCFIQYEQRSF | soluble
MRIFPVFLLTFSLFLIKEEIVTAEVKVSAPVVNQSGIKLNLERQFTGSDVAINRIHFSPDGQFLLTAAADGVGTLWTKEGEMLGQLQGQKPPMFNARLSPDRQILITTGYDGTIRLWNLQGELLEEQQPHRAAVADAIFSPDSQIIVTCSDDGQTKIFTRQGQEIASVLKSGTARNLAYHPQGLLIASVSDSGSLHLINPNGKIEREISTGQGRINNVNFSPNGEQLLTSGINGSAKLWNLAGELIHEYKVVPTGWVNSAQFYPKGEWLATASDDGTIRFWQKDGQLIYELPLVNARLTSLSFSPDGKQLAATSSQGQVWVFNLSYLEHHHHHH | not soluble
MENLKETVDIVVNSRYPEMNREGRELLAQVLIRKELEKGEMLLNEGQISRHMVFVGKGMLRQFYYKNGKDVTEHFSYEGCILMCIESLLKQEPTHLMAEALEPAVVYMLPYDVLQKLLEQSKEINAFYRKVLEYSLIVSQIKADSWRFETARERYNLLLHHHPEIIKRAPLSHIASYLLMTPETLSRVRSGVL | not soluble
FSNKRVLVEKEGEAGIAVMKFKNPPVNSLSLEFLTEFVISLEKLENDKSIRGVILTSERPGIFSAGLDLMEMYGRNPAHYAEYWKAVQELWLRLYLSNLTLISAINGASPAGGCLMALTCDYRIMADNSKYTIGLNESLLGIVAPFWLKDNYVNTIGHRAAERALQLGTLFPPAEALKVGLVDEVVPEDQVHSKARSVMAKWFTIPDHSRQLTKSMMRKATADNLIKQREADIQNFTSFISRDSIQKSLHVYLEKLKQKKG | soluble
MFPFGHKGQKIKGTMVVMQKNVLDINSITSVDGIVGTGLDFLGSALDTVTFLASSISIQLISATKADGGKGKVGKATNLRGKITLPTIGAKEEAYDAQFDWDSDFGIPGAFYIKNYMQNEFYLKSLILEDIPNHGTIHFICNSWVYNSKHYKTDRIFFANNTYLPSETPAPLVKYREEELKNVRGDGTGERKEWDRIYDYDVYNDLGDPDKGEKYARPVLGGSALPYPRRGRTGRGKTRKDPNSEKPGDFVYLPRDEAFGHLKSSDFLAYGIKSVAQDVLPVLTDAFDGNLLSLDFDNFAEVRKLYEGGVTLPTNFLSNITPIPIIKELFRTDGEQFLKYPPPKVMQVDKSAWMTDEEFARETIAGLNPNVIKIIEEFPLSSKLDTQAYGDHTCIITKEHLEPNLGGLTVEQAIQNKKLFILDHHDYLIPYLRKINANTTKTYATRTIFFLKNDGTLTPLAIELSKPHPQGEEYGPVSEVYVPSSEGVEAYIWLLAKAYVVVNDACYHQIISHWLNTHAVVEPFVIATNRHLSVVHPIYKLLFPHYRDTMNINSLARKSLVNADGIIEKTFLWGRYSLEMSAVIYKDWVFTDQALPNDLVKRGVAVKDPSAPHGVRLLIEDYPYASDGLEIWDAIKSWVEEYVSFYYKSDEELQKDPELQAWWKELVEVGHGDLKDKPWWQKMQTREELVEASATLIWIASALHAAVNFGQYPYGGLILNRPTISRRFMPEKGSPEYDALAKNPEKEFLKTITGKKETLIDLTIIEILSRHASDEFYLGQRDGGDYWTSDAGPLEAFKRFGKNLEEIEKKLIEKNNDETLRNRYGPAKMPYTLLYPSSEEGLTFRGIPNSISI | soluble
MSLKSYGAVKRISGKNRYVLSENIAKQMGSYDKAIVVTGRVFQDALAIAPYAAAHGYPILLTEKDKLPDYDLPKQVIIIGSSFSVSDSVENQIKKTSEGHHHHHH | soluble
MAIFARETMDLIATASFPSIKKLSSGFWLDLFESTLTSGNELVLLPPTRYSYWSIMAVANPTPLKAPRRLDLVTKSLLAAPLLFHLVCQSNNPVREDVLDCWVWPFFCSGNTALMKSPKFWALLGVGSKVVLPWLCPLLGSRNAGKA | soluble
MEYAADGDTVFLESIENMEVTRLDSAIIRNGTFSFKGRQDSTVARYLSCMTATDVFSIPFFLENGHIEVKMKSGNESVTGTPTNDIYQEIRSKMAEIMNKMNEIYSDSTLTEELAEEKMDQMEREYTIAQKEAVKKNIANPVGVFLFKEQYFENSLAENQALFRQIPPKYLNDPVLMGMQKQMESQEKTDMNTPFT | not soluble
MPDDKAVNGRRDFLRKTLTVIPAVTLAGYGVGHAMQTPAAEQDKPRERYQPRFFTNTEWAFVNAAVARLIPSDDNGPGAIEAGVPEFIDRQMETPYGHGALWYMQGPFVTDAAPEFGHQLKLVPRDIYRVGIAALERWSKANQGKPFAELEPSAQDDILQRLEAGQIDLQDLPAKLLFGQLLQNTHEGFFSDPQHGGNRGLVGWKLVGFPGARADFMDWADRGEKYPFPPVAISGERG | not soluble
MGSDKIHHHHHHMSIPQQTDALDQAPSTAGCRVPYRVFTDRQYYDREQENIFKGNCWSFVGLEAEVPQAGDFKSTFVGETPVILTRDSDGSLHVVVNRCAHRGALVCREMRGNRASLECVYHQWAYDLKGNLIGVPFRRGLKGQGGMPGDFDMSQHNLRQLRTESVGGLVFASFSETVESCRDFLGPIVVEQIERIMCKPITVLGDQRQRIRGNWKLYAENTRDPYHASLLHLFHNTFGLYRSTQTGKALMDANKRHSLLYSIAASNDDAADKQAYGDSRTFDTEFKLQDMSLLKGRQEFADNVTLVILAVYPNLVLQQIQNTLAVRQTVTYGPDEFELVWTHFGYQDDDAEMQAIRLKQANLIGPAGLISMEDGEAVEIVQNAIVGEASATSYIAMGGGRAEDADHLVTEGAIIGFWDNYREMVGFEVEPT | not soluble
